Test [1] addresses ubiquitinated proteins of yeast cells. The experiment in a line: Flag purification from yeast cells, anti-Ub immunoblot. A general note: A western blot detects proteins with antibodies after separation by electrophoresis.
Test [2] has the same target. Kind of test: Flag-Rad23 precipitation from yeast extracts, anti-Ub immunoblot, adjusted for the amount of Flag-Rad23 precipitated.

B1: Flag-rad23^uba2 (yeast Rad23 L392A, amino-terminal Flag epitope) (protein, yeast (Saccharomyces cerevisiae), UniProt P32628 1-398, looked up, not shown: small tags and cut ends)
chain: MVSLTFKNFKKEKVPLDLEPSNTILETKTKLAQSISCEESQIKLIYSGKVLQDSKTVSECGLKDGDQVVFMVSQKKSTKTKVTEPPIAPESATTPGRENSTEASPSTDASAAPAATAPEGSQPQEEQTATTERTESASTPGFVVGTERNETIERIMEMGYQREEVERALRAAFNNPDRAVEYLLMGIPENLRQPEPQQQTAAAAEQPSTAATTAEQPAEDDLFAQAAQGGNASSGALGTTGGATDAAQGGPPGSIGLTVEDLLSLRQVVSGNPEALAPLLENISARYPQLREHIMANPEVFVSMLLEAVGDNMQDVMEGADDMVEGEDIEVTGEAAAAGLGQGEGEGSFQVDYTPEDDQAISRLCELGFERDLVIQVYFACDKNEEAAANIAFSDHAD
The molecule B1 returned a decrease of binding, against Flag-Rad23 in test [1] of 20%.

B2: Flag-Rad23 (yeast Rad23 with an amino-terminal Flag epitope) (protein, yeast (Saccharomyces cerevisiae), UniProt P32628 1-398, looked up, not shown: small tags and cut ends)
chain: MVSLTFKNFKKEKVPLDLEPSNTILETKTKLAQSISCEESQIKLIYSGKVLQDSKTVSECGLKDGDQVVFMVSQKKSTKTKVTEPPIAPESATTPGRENSTEASPSTDASAAPAATAPEGSQPQEEQTATTERTESASTPGFVVGTERNETIERIMEMGYQREEVERALRAAFNNPDRAVEYLLMGIPENLRQPEPQQQTAAAAEQPSTAATTAEQPAEDDLFAQAAQGGNASSGALGTTGGATDAAQGGPPGSIGLTVEDLLSLRQVVSGNPEALAPLLENISARYPQLREHIMANPEVFVSMLLEAVGDNMQDVMEGADDMVEGEDIEVTGEAAAAGLGQGEGEGSFQVDYTPEDDQAISRLCELGFERDLVIQVYFACDKNEEAAANILFSDHAD
B2: the fold increase of the interaction after treatment with 4-NQO, against untreated cells in test [2] came out at 2 fold.

B3: Flag-rad23^uba1uba2 (yeast Rad23 with mutations in both UBA domains, amino-terminal Flag epitope) (protein, yeast (Saccharomyces cerevisiae), UniProt P32628 1-398, looked up, not shown: small tags and cut ends)
chain: MVSLTFKNFKKEKVPLDLEPSNTILETKTKLAQSISCEESQIKLIYSGKVLQDSKTVSECGLKDGDQVVFMVSQKKSTKTKVTEPPIAPESATTPGRENSTEASPSTDASAAPAATAPEGSQPQEEQTATTERTESASTPGFVVGTERNETIERIMEMGYQREEVERALRAAFNNPDRAVEYALMGIPENLRQPEPQQQTAAAAEQPSTAATTAEQPAEDDLFAQAAQGGNASSGALGTTGGATDAAQGGPPGSIGLTVEDLLSLRQVVSGNPEALAPLLENISARYPQLREHIMANPEVFVSMLLEAVGDNMQDVMEGADDMVEGEDIEVTGEAAAAGLGQGEGEGSFQVDYTPEDDQAISRLCELGFERDLVIQVYFACDKNEEAAANIAFSDHAD
As to B3, the interaction remaining, compared to the wildtype protein in test [1] worked out at 1%.

(Values after patent US20050287608A1.)
